Assay results taken from article PMC6442418, “Pycnoporus cinnabarinus glyoxal oxidases display differential catalytic efficiencies on 5-hydroxymethylfurfural and its oxidized derivatives” (Fungal Biology and Biotechnology, 2019).

B1: PciGLOX2 (Trametes cinnabarina) (protein)
chain: APSTPTGWQFNLKAERSGIVALESIVVSPTLVVFFDRATNDPLQINNHSAWGALWNLETSTVRALDVLTNSFCASGALLSNGTMASIGGDPNGFPGNPAIHPGTQAIRLFEPCDSPTGEGCTLFEDPVTLHLLEKRWYPSSVRIFDGSLLIVGGMHEETPFYNTDPALSFEFFPPKESTPRPSEFLNRSLPANLFPRVFALPDGKVFMVANNQSIIYDIEANTERILPDIPNNVRVTNPIDGSAILLPLSPPDFVPEVLVCGGTQTDTIDPSLLTSQTPASSQCSRIRLDEEGIARGWEVEHMLEGRMMPELVHLPNGQVLIANGARTGFAAIASVSDPVGGSNADHAVLVPSLYTPDAPLGTRISNVGLPSSGIARVYHSSITLTPQGNFLIAGSNPNNNSSVTAGVKFPSEFRVQTLDPPFMFVERPKILSMPKKLAFGKSFTVPIAVPSTLAHPGAKVQVSLMDLGFSSHAFHSSARLVFMNAKISQDGKSLTFTTPPNGRVYPPGPATIFLTIDDVTSEGAWVMMGSGNPPPTLE
notes: secreted copper radical oxidase (AA5), heterologously produced in Aspergillus niger, purified
B2: PciGLOX1 (Trametes cinnabarina) (protein)
chain: APSAPGWRFDLKAERSGIVALESIVVSPTLVLWFDRASDDPLQINNHSAWGALWNLETSTVRPLNVLTNSFCASGALLSNGSMASVGGDPRGFPGNPAINPGNQAIRIFEPCASPTGDGCTVFEDPQTLHLLEDRWYPSSIRIFDGSLLIVGGTHVNENFYNLHPANSFEFFPPKESTPRPSAFLERSLPANLFPRIFALPDGKVFMVANNQSIIYDIEANTERILPDIPNNVRVTNPIDGSAILLPLTPPDYIPEVLVCGGTSTDPLDPSLLSSQTPATTQCSRIRLDEEGIAKGWQVEHMLEPRTMPELVHIPNGQILIANGARTGFAAIKQVQDPIGNSNSDHAVLVPSIYTPDAPLGQRISNAGMPSSGIARVYHSSITLTPQGNFLIAGSNPNGNTTVGPGVKFPSEFRVQTLDPPFMFVERPKILNTPEKLAFNKTFTVPISVPSTLASPGAKVQVSLMDLGFSSHAFHSSARLVFMDATISRDRRSLTFTTPPNGRVFPPGPATVFLTIDGVTSEGAWVMMGSGNSPPTLE
notes: as for B1
B3: PciGLOX3 (Trametes cinnabarina) (protein)
chain: APSAPGWSFDLKKETSGIVALEAIVVSPTLVVFFDRASDDPLQINNHSAWGALWNLESSTVRPLDVLTNSFCASGALLSNGTMASVGGDPDGFVGNPAIRPGNQAIRLFEPCDSPTGDGCTLFEDPATLHLLEKRWYPSSARIFDGSLIIVGGMHEATPFYNTDPALSFEFFPRKEDTPRPSEFLNRSLPANLFPRVFALPDGKVFMVANNQSIIYDIEAKTERILPDVPNNVRVTNPMDGSAILLPLSPPDFVPEVLVCGGSQTDTIDPSLLTSQTPASSQCSRIRLDEEGIAKGWEVEHMLEGRIMPELVHLPNGQVLIANGGRTGFAAIASVSEPVGNSNADHPVLVPSLYTPDAPLGRRISNVGLPSSGIPRLYHSSVTLTPQGNFLIAGSNPNNRTTVGPGIKFPSEFRVQTLDPPFMSVERPKILNMPKKLGFNKSFTVPISVPSSLARPGAKVQISLMDLGFSSHAFHSSARLVFMNGKISQDSKSLTFTTPPNGRVYPPGPATVFLTIDDVTSEGAWVMMGSGNSPPTLE
notes: as for B1

What was measured:
Assay in all cases: purified protein
Type in all cases: biochemical, Trametes cinnabarina
Conditions in all cases: 50 mM sodium tartrate pH 6, 30 °C, HRP 8 U, 0.1 mM ABTS, 5 µM H2O2
purified protein [1] = substrate: O=Cc1ccc(C=O)o1
purified protein [2] = substrate: O=Cc1ccc(CO)o1
purified protein [3] = substrate: CC(=O)C=O
purified protein [4] = substrate: O=CC(=O)O
purified protein [5] = substrate: O=CC=O
purified protein [6] = substrate: OCC(O)CO

Protein | Km (purified protein [1]) [µM] | kcat (purified protein [1]) [s⁻¹] | kcat/Km (purified protein [1]) [M⁻¹ s⁻¹] | Km (purified protein [2]) [µM] | kcat (purified protein [2]) [s⁻¹] | kcat/Km (purified protein [2]) [M⁻¹ s⁻¹] | Km (purified protein [3]) [µM] | Km (purified protein [4]) [µM] | Km (purified protein [5]) [µM] | Km (purified protein [6]) [µM]
B1 | 210 ± 40 | 4.8 ± 0.24 | 23404 ± 0.01 | 5870 ± 2040 | 0.56 ± 0.09 | 96.04 ± 0.01 | – | – | – | –
B2 | 4380 ± 100 | 0.54 ± 0.24 | 124.39 ± 0.01 | 15660 ± 2350 | 1.59 ± 0.12 | 101.66 ± 0.01 | – | – | – | –
B3 | 180 ± 50 | 1.28 ± 0.09 | 7267.7 ± 0.01 | 6350 ± 1320 | 0.75 ± 0.07 | 118.35 ± 0.01 | 100 | 500 | 700 | 5500
